Laboratory results: ChEMBL document CHEMBL3526030, “Transport of the coumarin metabolite 7-hydroxycoumarin glucuronide is mediated via multidrug resistance-associated proteins 3 and 4” (Drug Metab Dispos, 2012)

How the values were obtained:
[1] = substrate: O=C(O)[C@H]1O[C@@H](Oc2ccc3ccc(=O)oc3c2)[C@H](O)[C@@H](O)[C@@H]1O; experiment: Activity at MRP4 (unknown origin) expressed in baculovirus-infected HEK293 cells assessed as drug transport after 10 mins by Michaelis-Menten plot analysis; assay type: ADME, Homo sapiens
[2] = substrate: O=C(O)[C@H]1O[C@@H](Oc2ccc3ccc(=O)oc3c2)[C@H](O)[C@@H](O)[C@@H]1O; experiment: Activity at MRP3 (unknown origin) expressed in baculovirus-infected HEK293 cells assessed as drug transport after 10 mins by Michaelis-Menten plot analysis; assay type: ADME, Homo sapiens

Row | Protein | Km [1] | Vmax [1] | Km [2] | Vmax [2]
1 | ATP-binding cassette sub-family C member 4 (Homo sapiens) (protein) MLPVYQEVKPNPLQDANLCSRVFFWWLNPLFKIGHKRRLEEDDMYSVLPEDRSQHLGEELQGFWDKEVLRAENDAQKPSLTRAIIKCYWKSYLVLGIFTLIEESAKVIQPIFLGKIINYFENYDPMDSVALNTAYAYATVLTFCTLILAILHHLYFYHVQCAGMRLRVAMCHMIYRKALRLSNMAMGKTTTGQIVNLLSNDVNKFDQVTVFLHFLWAGPLQAIAVTALLWMEIGISCLAGMAVLIILLPLQSCFGKLFSSLRSKTATFTDARIRTMNEVITGIRIIKMYAWEKSFSNLITNLRKKEISKILRSSCLRGMNLASFFSASKIIVFVTFTTYVLLGSVITASRVFVAVTLYGAVRLTVTLFFPSAIERVSEAIVSIRRIQTFLLLDEISQRNRQLPSDGKKMVHVQDFTAFWDKASETPTLQGLSFTVRPGELLAVVGPVGAGKSSLLSAVLGELAPSHGLVSVHGRIAYVSQQPWVFSGTLRSNILFGKKYEKERYEKVIKACALKKDLQLLEDGDLTVIGDRGTTLSGGQKARVNLARAVYQDADIYLLDDPLSAVDAEVSRHLFELCICQILHEKITILVTHQLQYLKAASQILILKDGKMVQKGTYTEFLKSGIDFGSLLKKDNEESEQPPVPGTPTLRNRTFSESSVWSQQSSRPSLKDGALESQDTENVPVTLSEENRSEGKVGFQAYKNYFRAGAHWIVFIFLILLNTAAQVAYVLQDWWLSYWANKQSMLNVTVNGGGNVTEKLDLNWYLGIYSGLTVATVLFGIARSLLVFYVLVNSSQTLHNKMFESILKAPVLFFDRNPIGRILNRFSKDIGHLDDLLPLTFLDFIQTLLQVVGVVSVAVAVIPWIAIPLVPLGIIFIFLRRYFLETSRDVKRLESTTRSPVFSHLSSSLQGLWTIRAYKAEERCQELFDAHQDLHSEAWFLFLTTSRWFAVRLDAICAMFVIIVAFGSLILAKTLDAGQVGLALSYALTLMGMFQWCVRQSAEVENMMISVERVIEYTDLEKEAPWEYQKRPPPAWPHEGVIIFDNVNFMYSPGGPLVLKHLTALIKSQEKVGIVGRTGAGKSSLISALFRLSEPEGKIWIDKILTTEIGLHDLRKKMSIIPQEPVLFTGTMRKNLDPFNEHTDEELWNALQEVQLKETIEDLPGKMDTELAESGSNFSVGQRQLVCLARAILRKNQILIIDEATANVDPRTDELIQKKIREKFAHCTVLTIAHRLNTIIDSDKIMVLDSGRLKEYDEPYVLLQNKESLFYKMVQQLGKAEAAALTETAKQVYFKRNYPHIGHTDHMVTNTSNGQPSTLTIFETAL | 63 µM | 0.00092 µmol/min/mg |  | 
2 | ATP-binding cassette sub-family C member 3 (Homo sapiens) (protein) MDALCGSGELGSKFWDSNLSVHTENPDLTPCFQNSLLAWVPCIYLWVALPCYLLYLRHHCRGYIILSHLSKLKMVLGVLLWCVSWADLFYSFHGLVHGRAPAPVFFVTPLVVGVTMLLATLLIQYERLQGVQSSGVLIIFWFLCVVCAIVPFRSKILLAKAEGEISDPFRFTTFYIHFALVLSALILACFREKPPFFSAKNVDPNPYPETSAGFLSRLFFWWFTKMAIYGYRHPLEEKDLWSLKEEDRSQMVVQQLLEAWRKQEKQTARHKASAAPGKNASGEDEVLLGARPRPRKPSFLKALLATFGSSFLISACFKLIQDLLSFINPQLLSILIRFISNPMAPSWWGFLVAGLMFLCSMMQSLILQHYYHYIFVTGVKFRTGIMGVIYRKALVITNSVKRASTVGEIVNLMSVDAQRFMDLAPFLNLLWSAPLQIILAIYFLWQNLGPSVLAGVAFMVLLIPLNGAVAVKMRAFQVKQMKLKDSRIKLMSEILNGIKVLKLYAWEPSFLKQVEGIRQGELQLLRTAAYLHTTTTFTWMCSPFLVTLITLWVYVYVDPNNVLDAEKAFVSVSLFNILRLPLNMLPQLISNLTQASVSLKRIQQFLSQEELDPQSVERKTISPGYAITIHSGTFTWAQDLPPTLHSLDIQVPKGALVAVVGPVGCGKSSLVSALLGEMEKLEGKVHMKGSVAYVPQQAWIQNCTLQENVLFGKALNPKRYQQTLEACALLADLEMLPGGDQTEIGEKGINLSGGQRQRVSLARAVYSDADIFLLDDPLSAVDSHVAKHIFDHVIGPEGVLAGKTRVLVTHGISFLPQTDFIIVLADGQVSEMGPYPALLQRNGSFANFLCNYAPDEDQGHLEDSWTALEGAEDKEALLIEDTLSNHTDLTDNDPVTYVVQKQFMRQLSALSSDGEGQGRPVPRRHLGPSEKVQVTEAKADGALTQEEKAAIGTVELSVFWDYAKAVGLCTTLAICLLYVGQSAAAIGANVWLSAWTNDAMADSRQNNTSLRLGVYAALGILQGFLVMLAAMAMAAGGIQAARVLHQALLHNKIRSPQSFFDTTPSGRILNCFSKDIYVVDEVLAPVILMLLNSFFNAISTLVVIMASTPLFTVVILPLAVLYTLVQRFYAATSRQLKRLESVSRSPIYSHFSETVTGASVIRAYNRSRDFEIISDTKVDANQRSCYPYIISNRWLSIGVEFVGNCVVLFAALFAVIGRSSLNPGLVGLSVSYSLQVTFALNWMIRMMSDLESNIVAVERVKEYSKTETEAPWVVEGSRPPEGWPPRGEVEFRNYSVRYRPGLDLVLRDLSLHVHGGEKVGIVGRTGAGKSSMTLCLFRILEAAKGEIRIDGLNVADIGLHDLRSQLTIIPQDPILFSGTLRMNLDPFGSYSEEDIWWALELSHLHTFVSSQPAGLDFQCSEGGENLSVGQRQLVCLARALLRKSRILVLDEATAAIDLETDNLIQATIRTQFDTCTVLTIAHRLNTIMDYTRVLVLDKGVVAEFDSPANLIAARGIFYGMARDAGLA |  |  | 187 µM | 0.00046 µmol/min/mg
